Test [1] addresses T1, fusion protein of a human IgG1 Fc domain and human LAP-TGFβ3 (human, UniProt P10600 24-412).
T1 construct: also called Fc-huB3; human LAP-TGFβ3-Fc
T1 sequence: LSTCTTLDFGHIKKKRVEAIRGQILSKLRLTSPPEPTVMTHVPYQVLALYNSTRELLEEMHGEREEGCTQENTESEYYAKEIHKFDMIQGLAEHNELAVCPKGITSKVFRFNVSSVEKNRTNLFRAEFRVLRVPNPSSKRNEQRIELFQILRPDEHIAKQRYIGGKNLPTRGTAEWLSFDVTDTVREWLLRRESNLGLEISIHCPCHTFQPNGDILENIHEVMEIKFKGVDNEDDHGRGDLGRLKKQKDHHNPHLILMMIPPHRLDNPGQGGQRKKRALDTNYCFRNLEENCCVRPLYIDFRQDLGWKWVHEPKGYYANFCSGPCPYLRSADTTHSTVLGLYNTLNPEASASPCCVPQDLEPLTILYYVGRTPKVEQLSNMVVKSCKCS
Briefly: bio-layer interferometry, biotinylated antibody on streptavidin tip, Fc-huB3 in solution. As to the method: (§1) The 20E6_H0.2aL1_IgG1 antibody was biotinylated using EZ-Link SulfoNHS-LC-Biotin (ThermoFisher). A streptavidin-functionalized tip was equilibrated in binding buffer (10 mM sodium phosphate, 150 mM sodium chloride, 1% (w/v) bovine serum albumin, 0.05% (w/v) sodium azide, pH 7.4) and dipped in a 10 μg/mL solution of biotinylated anti-LAP in binding buffer for 30 seconds to load the tip with antibody. The antibody-loaded tip was then washed in binding buffer and placed in a solution containing 0-24 nM of a fusion protein having a human IgG1 Fc domain fused to either human LAP-TGFβ1, human LAP-TGFβ2 or human LAP-TGFβ3. The antigen was allowed to bind to antibody for 5 minutes (association phase), and then the tip was moved to binding buffer (dissociation phase). The association and dissociation phases were fit to a 2:1 heterogenous ligand binding model to determine the binding rate constants. As shown in FIG. 21A and Table 17, 20E6_H0.2aL1_IgG1 bound with sub-nanomolar affinity to human LAP-TGFβ1, but not to human LAP-TGFβ2 (FIG. 21B) or LAP-TGFβ3 (FIG. 21C).
(BLI is a label-free optical method that tracks binding on a fibre tip over time.)

The target of test [2] is T2, fusion protein of a human IgG1 Fc domain and human LAP-TGFβ1 (human, UniProt P01137 30-390).
T2 construct: printed both as Fc-huB1 and LAP-TGFβ-Fc; also called Fc-huB1; Fc-human LAP
T2 sequence (P01137 30-390 limits assumed): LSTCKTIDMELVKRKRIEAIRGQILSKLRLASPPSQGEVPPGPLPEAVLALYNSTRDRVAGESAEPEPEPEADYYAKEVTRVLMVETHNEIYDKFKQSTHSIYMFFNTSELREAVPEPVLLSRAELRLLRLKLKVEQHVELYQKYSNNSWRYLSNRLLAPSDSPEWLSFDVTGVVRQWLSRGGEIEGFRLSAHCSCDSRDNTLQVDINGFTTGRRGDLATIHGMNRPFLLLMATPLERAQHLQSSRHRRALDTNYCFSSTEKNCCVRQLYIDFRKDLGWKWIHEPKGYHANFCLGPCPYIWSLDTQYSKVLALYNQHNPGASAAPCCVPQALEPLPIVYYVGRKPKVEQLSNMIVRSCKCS
In words: BLI, 2:1 model, component 1. The procedure:
as §1
(§2) The binding of 20E6_H0.2aL1_IgG1 antibody and 20E6_H0.2aL1_hIgG4mut antibody to LAP-TGFβ1 of various species was examined by bio-layer interferometry using the method described in Example 12, except that the antibody-loaded tip was placed in a solution containing 0-24 nM of a fusion protein having a human IgG1 Fc domain fused to either mouse, rat, cynomolgus monkey, or human LAP-TGFβ1.

Test [3] addresses T3, fusion protein of a human IgG1 Fc domain and cynomolgus monkey LAP-TGFβ1 (human; cynomolgus monkey).
T3 construct: also called cynomolgus monkey LAP-TGFβ-Fc
Briefly: BLI, 2:1 model, component 1. As to the method:
as §1, §2

In test [4] the target is T4, fusion protein of a human IgG1 Fc domain and mouse LAP-TGFβ1 (human; mouse, UniProt P04202 30-390).
T4 construct: also called mouse LAP-TGFβ-Fc
T4 sequence (P04202 30-390 limits assumed): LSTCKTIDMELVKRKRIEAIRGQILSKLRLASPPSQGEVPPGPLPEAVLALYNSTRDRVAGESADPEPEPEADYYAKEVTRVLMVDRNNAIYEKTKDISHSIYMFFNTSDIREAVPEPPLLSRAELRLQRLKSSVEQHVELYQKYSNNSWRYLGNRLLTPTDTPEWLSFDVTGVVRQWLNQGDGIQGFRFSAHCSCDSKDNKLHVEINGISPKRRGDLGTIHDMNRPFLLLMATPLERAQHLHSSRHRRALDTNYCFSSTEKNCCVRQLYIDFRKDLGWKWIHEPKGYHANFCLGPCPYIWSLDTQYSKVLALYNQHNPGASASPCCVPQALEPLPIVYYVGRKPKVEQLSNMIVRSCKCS
In words: BLI, 2:1 model, component 1. As to the method: as §1, §2

For test [5], the target named is T5, fusion protein of a human IgG1 Fc domain and rat LAP-TGFβ1 (human; rat, UniProt P17246 30-390, limits assumed).
T5 construct: also called rat LAP-TGFβ-Fc
T5 sequence (P17246 30-390 limits assumed): as the sequence (P04202 30-390 limits assumed) above, with E93D, S99T, L131F, S134T, K202V counted along it
Briefly: BLI, 2:1 model, component 1. As to the method:
as §1, §2

For test [6], the target named is T6, fusion protein of a human IgG1 Fc domain and human LAP-TGFβ2 (human, UniProt P61812 21-414).
T6 construct: also called Fc-huB2; human LAP-TGFβ2-Fc
T6 sequence: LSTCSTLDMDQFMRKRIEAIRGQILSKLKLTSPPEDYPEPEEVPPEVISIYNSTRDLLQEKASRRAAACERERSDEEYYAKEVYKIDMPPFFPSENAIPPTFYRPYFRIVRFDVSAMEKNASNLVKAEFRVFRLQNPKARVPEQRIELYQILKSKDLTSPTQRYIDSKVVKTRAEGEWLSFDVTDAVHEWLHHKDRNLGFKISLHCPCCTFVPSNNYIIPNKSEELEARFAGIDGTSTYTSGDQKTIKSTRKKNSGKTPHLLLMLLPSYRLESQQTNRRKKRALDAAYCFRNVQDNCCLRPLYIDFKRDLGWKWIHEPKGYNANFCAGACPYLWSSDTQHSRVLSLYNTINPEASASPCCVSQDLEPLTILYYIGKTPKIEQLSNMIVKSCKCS
In words: bio-layer interferometry, biotinylated antibody on streptavidin tip, Fc-huB2 in solution. The procedure: as §1

For test [7], the target named is T7, murine LAP-TGFβ1 with a C-terminal polyhistidine purification tag (mouse, UniProt P04202 30-390).
T7 construct: also called Mouse LAP-TGFβ1
T7 sequence (P04202 30-390 limits assumed): as the sequence (P04202 30-390 limits assumed) above
Briefly: BLI, antibody on tip, 1:1 model. As to the method:
(§3) The chimeric antibodies were biotinylated using EZ-Link SulfoNHS-LC-Biotin (ThermoFisher). A streptavidin-functionalized tip was equilibrated in binding buffer (10 mM sodium phosphate, 150 mM sodium chloride, 1% (w/v) bovine serum albumin, 0.05% (w/v) sodium azide, pH 7.4). The tip was dipped in a 10 μg/mL solution of biotinylated, chimeric anti-LAP in binding buffer for 15 seconds to load the tip with antibody. The antibody-loaded tip was then washed in binding buffer and placed in a solution containing 0-24 nM of LAP-TGFβ1 (either a fusion protein containing a human IgG1 Fc domain fused to human LAP-TGFβ1 or a murine LAP-TGFβ1 with a C-terminal polyhistidine purification tag). The antigen was allowed to bind to antibody for 5 minutes (association phase), and then the tip was moved to binding buffer (dissociation phase). The association and dissociation phases were fit to a 1:1 binding model to determine the binding rate constants.

Test [8] addresses T2, fusion protein of a human IgG1 Fc …. Briefly: BLI, antibody on tip, 1:1 model. The procedure:
as §3

The target in test [9] is human LAP-TGFβ1 overexpressed on cells (human, UniProt P01137 30-390). Briefly: cell-based or functional assay.
Chain of human LAP-TGFβ1 overexpressed on cells (P01137 30-390): as the sequence (P01137 30-390 limits assumed) above

B1: 20E6_H0.2aL1_hIgG1 (antibody)
heavy: not shown
light: DIQMTQSPSSLSASVGDRVTITCRASQDITNYLNWYQQKPGKAVKLLIYYTSRLHSGVPSRFSGSGSGTDYTLTISSLQPEDFATYFCQQGDTLPWTFGQGTKLEIKRTVAAPSVFIFPPSDEQLKSGTASVVCLLNNFYPREAKVQWKVDNALQSGNSQESVTEQDSKDSTYSLSSTLTLSKADYEKHKVYACEVTHQGLSSPVTKSFNRGEC
notes: also called 20E6_H0.2aL1_IgG1; humanized 20E6
Broadly, the Kd is the constant that tells how readily two partners part at equilibrium. In general, koff refers to the rate constant with which the complex falls apart. By kon is commonly meant the rate constant with which the complex forms. For the molecule B1, the binding result in test [1] and in test [6] was “no binding (tested: 24 nM)” throughout. In addition, the Kd in test [2] worked out at 16.5 nM; in test [3] it was 15.8 nM; in test [4], 14.2 nM; in [5], 13.4 nM. Also, the koff amounted to 0.0355 s⁻¹ in test [2], 0.0394 s⁻¹ in test [3], 0.0343 s⁻¹ in test [4] and 0.0441 s⁻¹ in test [5]. The on-rate (kon) in test [2] is 2.15e+06 M⁻¹ s⁻¹; in test [3] it was 2.49e+06 M⁻¹ s⁻¹; in [4] it was 2.42e+06 M⁻¹ s⁻¹; in [5], 3.3e+06 M⁻¹ s⁻¹.

B2: 22F9_hIgG1 (antibody, V domains shown)
VH: QVQLQQPGAELVKPGASVKLSCKASGYTFTSYWMHWVKQRPGQGLEWIGMIHPNSGSTNYNEKFKSKATLTVDKSSSTAYMQLSSLTSEDSAVYYCAYYDYDGFFDVWGTGTTVTVSS
VL: DIVLTQSPASLDVSLGQRATISCRASKSVSTSGYSYMHWYQQKSGQPPKLLIYLASNLESGVPARFSGSGSGTHFTLNIHPVEEEDAATYYCQHSRELPYTFGGGTKLEIK
As to B2, in test [7], the Kd is 0.37 nM, the koff turned out to be 0.000444 s⁻¹ and the kon is 1.21e+06 M⁻¹ s⁻¹. In [8], this molecule came in with a Kd of 0.76 nM, a dissociation rate constant (koff) of 0.000768 s⁻¹ and a kon of 1.01e+06 M⁻¹ s⁻¹. Further, in test [9], the “Inhibition of human TGFβ1 activation (IC50)” value is 3.9 µg/mL.

The values above are taken from patent publication US20220017612A1 (TILOS THERAPEUTICS, published 2022).
